Test results reported in patent publication US20230035659A1, “Compositions and Methods for TTR Gene Editing and Treating ATTR Amyloidosis Comprising a Corticosteroid or Use Thereof” (Intellia Therapeutics, Inc., priority 2019, published 2023).
Strand notation (5' to 3'): a small letter for the sugar, then the base; units joined by * are phosphorothioate-linked, units joined directly phosphodiester-linked; [ ] holds rarer units or linkages, { } end groups; capitals alone tell only the bases. m = 2'-O-methyl; r = 2'-OH (RNA)

B1: G000568: TTR sgRNA modified sequence, Human, SEQ ID NO: 110; guide sequence of CR003391 (nucleic acid)
guide: mG*mG*mC*rUrGrUrCrGrUrCrArCrCrArArUrCrCrCrArGrUrUrUrUrArGrAmGmCmUmAmGmAmAmAmUmAmGmCrArArGrUrUrArArArArUrArArGrGrCrUrArGrUrCrCrGrUrUrArUrCrAmAmCmUmUmGmAmAmAmAmAmGmUmGmGmCmAmCmCmGmAmGmUmCmGmGmUmGmCmU*mU*mU*mU
B2: G000488: TTR sgRNA modified sequence, Human, SEQ ID NO: 95; guide sequence of CR003346 (nucleic acid)
guide: mA*mA*mA*rGrUrUrCrUrArGrArUrGrCrUrGrUrCrCrGrGrUrUrUrUrArGrAmGmCmUmAmGmAmAmAmUmAmGmCrArArGrUrUrArArArArUrArArGrGrCrUrArGrUrCrCrGrUrUrArUrCrAmAmCmUmUmGmAmAmAmAmAmGmUmGmGmCmAmCmCmGmAmGmUmCmGmGmUmGmCmU*mU*mU*mU
B3: G000481: TTR sgRNA modified sequence, Human, SEQ ID NO: 88; guide sequence of CR003345 (nucleic acid)
guide: UCUAGAACUUUGACCAUCAGGUUUUAGAGCUAGAAAUAGCAAGUUAAAAUAAGGCUAGUCCGUUAUCAACUUGAAAAAGUGGCACCGAGUCGGUGCUUUU
modifications: sugars from the 5' end m3 r25 m12 r28 m32, backbone not given here; further chemistry not fully specified
B4: G000500: TTR sgRNA modified sequence, Human, SEQ ID NO: 107; guide sequence of CR003337 (nucleic acid)
guide: mC*mC*mA*rGrUrCrCrArGrCrArArGrGrCrArGrArGrGrGrUrUrUrUrArGrAmGmCmUmAmGmAmAmAmUmAmGmCrArArGrUrUrArArArArUrArArGrGrCrUrArGrUrCrCrGrUrUrArUrCrAmAmCmUmUmGmAmAmAmAmAmGmUmGmGmCmAmCmCmGmAmGmUmCmGmGmUmGmCmU*mU*mU*mU
B5: G000493: TTR sgRNA modified sequence, Human, SEQ ID NO: 100; guide sequence of CR003368 (nucleic acid)
guide: mA*mA*mG*rUrGrCrCrUrUrCrCrArGrUrArArGrArUrUrGrUrUrUrUrArGrAmGmCmUmAmGmAmAmAmUmAmGmCrArArGrUrUrArArArArUrArArGrGrCrUrArGrUrCrCrGrUrUrArUrCrAmAmCmUmUmGmAmAmAmAmAmGmUmGmGmCmAmCmCmGmAmGmUmCmGmGmUmGmCmU*mU*mU*mU
B6: G000489: TTR sgRNA modified sequence, Human, SEQ ID NO: 96; guide sequence of CR003344 (nucleic acid)
guide: mU*mU*mU*rGrArCrCrArUrCrArGrArGrGrArCrArCrUrGrUrUrUrUrArGrAmGmCmUmAmGmAmAmAmUmAmGmCrArArGrUrUrArArArArUrArArGrGrCrUrArGrUrCrCrGrUrUrArUrCrAmAmCmUmUmGmAmAmAmAmAmGmUmGmGmCmAmCmCmGmAmGmUmCmGmGmUmGmCmU*mU*mU*mU
B7: G000490: TTR sgRNA modified sequence, Human, SEQ ID NO: 97; guide sequence of CR003366 (nucleic acid)
guide: mA*mA*mA*rUrArGrArCrArCrCrArArArUrCrUrUrArCrGrUrUrUrUrArGrAmGmCmUmAmGmAmAmAmUmAmGmCrArArGrUrUrArArArArUrArArGrGrCrUrArGrUrCrCrGrUrUrArUrCrAmAmCmUmUmGmAmAmAmAmAmGmUmGmGmCmAmCmCmGmAmGmUmCmGmGmUmGmCmU*mU*mU*mU
B8: G000572: TTR sgRNA modified sequence, Human, SEQ ID NO: 113; guide sequence of CR003385 (nucleic acid)
guide: mC*mC*mC*rCrUrArCrUrCrCrUrArUrUrCrCrArCrCrArGrUrUrUrUrArGrAmGmCmUmAmGmAmAmAmUmAmGmCrArArGrUrUrArArArArUrArArGrGrCrUrArGrUrCrCrGrUrUrArUrCrAmAmCmUmUmGmAmAmAmAmAmGmUmGmGmCmAmCmCmGmAmGmUmCmGmGmUmGmCmU*mU*mU*mU

System: TTR
Assay: TTR editing in primary human hepatocytes treated with LNP formulated Spy Cas9 mRNA (SEQ ID NO: 2) and sgRNAs, 12.5 ng mRNA
Assay type: cell-based
Conditions: LNP formulated Spy Cas9 mRNA (SEQ ID NO: 2) and sgRNA, 12.5 ng mRNA, 3.9 nM sgRNA, 72 hours
Procedure: Primary liver hepatocytes. Primary human liver hepatocytes (PHH) and primary cynomolgus liver hepatocytes (PCH) (Gibco) were cultured per the manufacturer's protocol (Invitrogen, protocol 11.28.2012). In brief, the cells were thawed and resuspended in hepatocyte thawing medium with supplements (Gibco, Cat. CM7000) followed by centrifugation at 100 g for 10 minutes for human and 80 g for 4 minutes for cyno. The supernatant was discarded and the pelleted cells resuspended in hepatocyte plating medium plus supplement pack (Invitrogen, Cat. A1217601 and CM3000). Cells were counted and plated on Bio-coat collagen I coated 96-well plates (ThermoFisher, Cat. 877272) at a density of 33,000 cells/well for human or 60,000 cells/well for cyno (or 65,000 cells/well when assaying effects on TTR protein, described further below). Plated cells were allowed to settle and adhere for 6 or 24 hours in a tissue culture incubator at 37° C. and 5% CO2 atmosphere. After incubation cells were checked for monolayer formation and media was replaced with hepatocyte culture medium with serum-free supplement pack (Invitrogen, Cat. A1217601 and CM4000).
In general, the lipid nanoparticle components were dissolved in 100% ethanol with the lipid component of various molar ratios. The RNA cargos were dissolved in 25 mM citrate, 100 mM NaCl, pH 5.0, resulting in a concentration of RNA cargo of approximately 0.45 mg/mL. The LNPs were formulated with a lipid amine to RNA phosphate (N:P) molar ratio of about 4.5 or about 6, with the ratio of mRNA to gRNA at 1:1 by weight.
The LNPs were formed by microfluidic mixing of the lipid and RNA solutions using a Precision Nanosystems NanoAssemblr™ Benchtop Instrument, according to the manufacturer's protocol. A 2:1 ratio of aqueous to organic solvent was maintained during mixing using differential flow rates. After mixing, the LNPs were collected, diluted in water (approximately 1:1 v/v), held for 1 hour at room temperature, and further diluted with water (approximately 1:1 v/v) before final buffer exchange. The final buffer exchange into 50 mM Tris, 45 mM NaCl, 5% (w/v) sucrose, pH 7.5 (TSS) was completed with PD-10 desalting columns (GE). If required, formulations were concentrated by centrifugation with Amicon 100 kDa centrifugal filters (Millipore). The resulting mixture was then filtered using a 0.2 μm sterile filter. The final LNP was stored at −80° C. until further use.
Additional PCR was performed per the manufacturer's protocols (Illumina) to add chemistry for sequencing. The amplicons were sequenced on an Illumina MiSeq instrument. The reads were aligned to a reference genome (e.g., the human reference genome (hg38), the cynomologus reference genome (mf5), the rat reference genome (rn6), or the mouse reference genome (mm10)) after eliminating those having low quality scores. The resulting files containing the reads were mapped to the reference genome (BAM files), where reads that overlapped the target region of interest were selected and the number of wild type reads versus the number of reads which contain an insertion, substitution, or deletion was calculated.
The editing percentage (e.g., the “editing efficiency” or “percent editing” or “indel frequency”) is defined as the total number of sequence reads with insertions/deletions (“indels”) or substitutions over the total number of sequence reads, including wild type.
Lipid nanoparticle formulations of modified sgRNAs targeting human TTR and the cyno matched sgRNA sequences were tested on primary human hepatocytes and primary cyno hepatocytes in a dose response curve. Primary human and cyno hepatocytes were plated as described in Example 1. Both cell lines were incubated at 37° C., 5% CO2 for 24 hours prior to treatment with LNPs. The LNPs used in the experiments detailed in Tables 18-21 were prepared using the Nanoassemblr™ procedure, each containing the specified sgRNA and Cas9 mRNA (SEQ ID NO:2), each having Lipid. […]

Row | Molecule | 12.5 ng mRNA, 3.9 nM sgRNA, Avg % Edit [%]
1 | B1 | 54.60
2 | B2 | 44.80
3 | B3 | 24.37
4 | B4 | 23.57
5 | B5 | 7.33
6 | B6 | 16.85
7 | B7 | 10.53
8 | B8 | 55.45

System: TTR
Assay: TTR editing dose response (EC50, maximum editing) in primary cyno hepatocytes treated with LNP formulated U-depleted Spy Cas9 mRNA and sgRNAs
Assay type: cell-based, cynomolgus monkey
Conditions: LNP formulated U-depleted Spy Cas9 mRNA and human specific sgRNAs
Outline: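 Primary cyno hepatocytes, 24 h after plating, treated with LNPs (Cas9 mRNA plus sgRNA) preincubated 5 min in medium with 6% cyno serum; 8-point 3-fold doses from 300 ng mRNA. Lysed at 72 h; indel/substitution percentage by amplicon NGS, giving EC50 and maximum editing.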

Row | Molecule | Max Editing [%]
9 | B1 | 87.93
10 | B2 | 21.63
11 | B3 | 95.07
12 | B4 | 58.04
13 | B5 | 61.15
14 | B6 | 89.21
15 | B7 | 90.76
16 | B8 | 100.31

System: TTR
Assay: TTR editing dose response (EC50, maximum editing) in primary human hepatocytes treated with LNP formulated U-depleted Spy Cas9 mRNA and sgRNAs
Assay type: cell-based
Conditions: LNP formulated U-depleted Spy Cas9 mRNA and human specific sgRNAs, dose response
Outline: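 Primary human hepatocytes, plated 24 h earlier, got LNPs carrying Cas9 mRNA and sgRNA, preincubated 5 min in medium with 6% cyno serum. Dosing was an 8-point 3-fold series from 300 ng mRNA. At 72 h, NGS read indel/substitution frequency at the target, giving EC50 and maximum percent editing.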

Row | Molecule | Max Editing [%]
17 | B1 | 95.72
18 | B2 | 95.83
19 | B3 | 87.05
20 | B4 | 88.70
21 | B5 | 63.95
22 | B6 | 86.33
23 | B7 | 94.16
24 | B8 | 97.94
